# Assay results published in patent US20150175665A1 (IPSEN PHARMA S A S, published 2015).
# [ ]: non-standard residue; d: D form. The star is where a group is joined. Desaminotyrosyl = O=C(CCc1ccc(O)cc1)*; Hyp = O=C(O)[C@@H]1C[C@@H](O)CN1; Pip = O=C(O)[C@@H]1CCCCN1; Ac6c = NC1(C(=O)O)CCCCC1
# T1: human recombinant GIP receptor (human, UniProt P48546 22-466)
# T1 construct: whole, on cells; Assayed as washed membranes of CHO-K1 cells expressing the receptor; also called hGIP receptor
# T1 sequence (looked up): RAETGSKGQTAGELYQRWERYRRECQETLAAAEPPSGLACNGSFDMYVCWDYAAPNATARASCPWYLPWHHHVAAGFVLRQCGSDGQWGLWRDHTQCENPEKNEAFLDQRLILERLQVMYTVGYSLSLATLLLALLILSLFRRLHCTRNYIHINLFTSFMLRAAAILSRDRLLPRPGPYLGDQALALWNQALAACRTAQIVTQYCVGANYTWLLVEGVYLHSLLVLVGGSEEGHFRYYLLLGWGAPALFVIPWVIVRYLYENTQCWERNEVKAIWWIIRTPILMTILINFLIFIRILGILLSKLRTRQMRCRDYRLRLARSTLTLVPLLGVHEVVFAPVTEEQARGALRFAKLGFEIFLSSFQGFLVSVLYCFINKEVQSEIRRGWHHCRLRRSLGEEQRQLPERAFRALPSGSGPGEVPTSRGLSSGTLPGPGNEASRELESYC
# Target: T1, human recombinant GIP receptor
# Experiment: displacement of [125I]GIP, membranes of CHO-K1 cells expressing human GIP receptor
# Protocol: Membranes for in vitro receptor binding assays were prepared by homogenizing the CHO—K1 clonal cells expressing the human recombinant GIP receptor, with a Brinkman Polytron (setting 6, 15 sec), in ice-cold 50 mM Tris-HCl and then subjected to two centrifugations at 39,000 g for 10 minutes, with a resuspension in fresh buffer in between. For the assay, aliquots of the washed membrane preparations were incubated (100 minutes at 25° C. with 0.05 nM [¹²⁵1]GIP (2200 Ci/mmol) in 50 mM Tris-HCl, 0.1 mg/ml bacitracin, and 0.1% BSA. The final assay volume was 0.5 ml. The incubations were terminated by rapid filtration through GF/C filters (pre-soaked in 0.5% polyethylenimine) using a Brandel filtration manifold. Each tube and filter were then washed three times with 5-ml aliquots of ice-cold buffer.
# Specific binding was defined as the total radioligand bound minus that bound in the presence of 1000 nM GIP.
row,Binder,Ki
1,"YXEGTFISDYXIAMDKIHQQDFVNWLLAQKGKKNDWKHNIXQ (Tyr(Ac) at 1; Aib at 2; A5c at 11 and 41) [[Tyr(Ac)^1, Aib^2, A5c^11, 41]hGIP(1-42)-OH]",0.73 nM
2,"YGEGTFISDYXIAMDKIHQQDFVNWLLAQKGKKNDWKHNIXQ (pseudopeptide bond Ψ-(CH2-NH) between Tyr 1 and Gly 2; A5c at 11 and 41) [[Tyr^1-Ψ-(CH2-NH)Gly^2, A5c^11, 41]hGIP(1-42)-OH]",49 nM
3,"YXEGTFISDYXIAMDKIHQQDFVNWLLAQKGKKNDWKHNIXQ (Tyr(Me) at 1; Aib at 2; A5c at 11 and 41) [[Tyr(Me)^1, Aib^2, A5c^11, 41]hGIP(1-42)-OH]",4.5 nM
4,"YXEGTFISDYXIAMDKIHQQDFVNWLLAQKGKKNDWKHNIXQ (3NO2-Tyr at 1; Aib at 2; A5c at 11 and 41) [(3NO2-Tyr^1, Aib^2, A5c^11, 41)hGIP(1-42)-OH]",11.2 nM
5,"XXEGTFISDYXIAMDKIHQQDFVNWLLAQKGKKNDWKHNIXQ (3Thi at 1; Aib at 2; A5c at 11 and 41) [(3Thi^1, Aib^2, A5c^11, 41)hGIP(1-42)-OH]",7.05 nM
6,"YGEGTFISDYXIAMDKIHQQDFVNWLLAQKGKKNDWKHNXTQ (3F-Tyr at 1; A5c at 11 and 40) [(3F-Tyr^1, Gly^2, A5c^11, 40)hGIP(1-42)-OH]",10.4 nM
7,"XXEGTFISDYXIAMDKIHQQDFVNWLLAQKGKKNDWKHNIXQ (3-Pal at 1; Aib at 2; A5c at 11 and 41) [(3-Pal^1, Aib^2, A5c^11, 41)hGIP(1-42)-OH]",9.75 nM
8,"XXEGTFISDYXIAMDKIHQQDFVNWLLAQKGKKNDWKHNIXQ (Taz at 1; Aib at 2; A5c at 11 and 41) [(Taz^1, Aib^2, A5c^11, 41)hGIP(1-42)-OH]",3.28 nM
9,"XXEGTFISDYXIAMDKIHQQDFVNWLLAQKGKKNDWKHNIXQ (4-Pal at 1; Aib at 2; A5c at 11 and 41) [(4-Pal^1, Aib^2, A5c^11, 41)hGIP(1-42)-OH]",8.14 nM
10,"YXEGTFISDYXIAMDKIHQQDFVNWLLAQKGKKNDWKHNIXQ (2,6Me-Tyr at 1; Aib at 2; A5c at 11 and 41) [(2,6Me-Tyr^1, Aib^2, A5c^11, 41)hGIP(1-42)-OH]",1.03 nM
11,"XXEGTFISDYSIAXDKIHQQDFVNWLLAQK (4Hppa at 1; Aib at 2; Nle at 14; C-terminal amide) [(4Hppa^1, Aib^2, Nle^14)hGIP(1-30)-NH2]",2.95 nM
12,"XXEGTFISDYXIAXDKIHQQDFVNWLLAQK (4Hppa at 1; Aib at 2 and 11; Nle at 14; C-terminal amide) [(4Hppa^1, Aib^2, 11, Nle^14)hGIP(1-30)-NH2]",20.3 nM
13,"FXEGTFISDYXIAMDKIHQQDFVNWLLAQKGKKNDWKHNITQH (4Me-Phe at 1; Aib at 2; A5c at 11) [(4Me-Phe^1, Aib^2, A5c^11, His^43)hGIP(1-43)-OH]",9.13 nM
14,"YXEGTFISDYXIAXDKIHQQDFVNWLLAQKGKKNDWKHNITQH (3Br-Tyr at 1; Aib at 2; A5c at 11; Nle at 14) [(3Br-Tyr^1, Aib^2, A5c^11, Nle^14, His^43)hGIP(1-43)-OH]",1.09 nM
15,"XXEGTFISDYXIAMDKIHQQDFVNWLLAQKGKKNDWKHNITQH (3MeO-Tyr at 1; Aib at 2; A5c at 11) [(3MeO-Tyr^1, Aib^2, A5c^11, His^43)hGIP(1-43)-OH]",3.9 nM
16,"YAEGTFISDYXIAXDKIHQQDFVNWLLAQKGKKNDWKHNITQH (3Cl-Tyr at 1; D-Ala at 2; A5c at 11 and 14, X stands for a non-natural residue) [(3Cl-Tyr^1, D-Ala^2, A5c^11, 14, His^43)hGIP(1-43)-OH]",5.06 nM
17,"YXEGTFISDYXIAXDKIHQQDFVNWLLAQKGKKNDWKHNITQH (2,6Me-Tyr at 1; Aib at 2; A5c at 11 and 14) [(2,6Me-Tyr^1, Aib^2, A5c^11, 14, His^43)hGIP(1-43)-OH]",50.2 nM
18,"YXEGTFISDYXIAXDKIHQQDFVNWLLAQKGKKNDWKHNITQH (3Cl-Tyr at 1; Aib at 2; A5c at 11 and 14) [(3Cl-Tyr^1, Aib^2, A5c^11, 14, His^43)hGIP(1-43)-OH]",0.78 nM
19,"YAEGTFISDYXIAXDKIHQQDFVNWLLAQKGKKNDWKHNITQH (3Cl-Tyr at 1; D-Ala at 2; A5c at 11; Nle at 14, X stands for a non-natural residue) [(3Cl-Tyr^1, D-Ala^2, A5c^11, Nle^14, His^43)hGIP(1-43)-OH]",8.89 nM
20,"FXEGTFISDYXIAMDKIHQQDFVNWLLAQKGKKNDWKHNITQH (4CN-Phe at 1; Aib at 2; A5c at 11) [(4CN-Phe^1, Aib^2, A5c^11, His^43)hGIP(1-43)-OH]",5.12 nM

row,Binder,Ki
1,"XXEGTFISDYXIAXDKIHQQDFVNWLLAQKGKKNDWKHNITQH (3MeO-Tyr at 1; Aib at 2; A5c at 11 and 14) [(3MeO-Tyr^1, Aib^2, A5c^11, 14, His^43)hGIP(1-43)-OH]",9.34 nM
2,"YXEGTFISDYXIAXDKIHQQDFVNWLLAQKGKKNDWKHNITQH (2,6Me-Tyr at 1; Aib at 2; A5c at 11; Nle at 14) [(2,6Me-Tyr^1, Aib^2, A5c^11, Nle^14, His^43)hGIP(1-43)-OH]",39 nM
3,"XXEGTFISDYXIAMDKIHQQDFVNWLLAQKGKKNDWKHNITQH (hTyr at 1; Aib at 2; A5c at 11) [(hTyr^1, Aib^2, A5c^11, His^43)hGIP(1-43)-OH]",9.42 nM
4,"XXEGTFISDYXIAXDKIHQQDFVNWLLAQKGKKNDWKHNIXQH (3MeO-Tyr at 1; Aib at 2; A5c at 11, 14 and 41) [(3MeO-Tyr^1, Aib^2, A5c^11, 14, 41-His^43)hGIP(1-43)-OH]",6.4 nM
5,"YXEGTFISDYXIAXDKIHQQDFVNWLLAQKGKKNDWKHNITQH (3Br-Tyr at 1; Aib at 2; A5c at 11 and 14) [(3Br-Tyr^1, Aib^2, A5c^11, 14, His^43)hGIP(1-43)-OH]",0.92 nM
6,"XXEGTFISDYXIAMDKIHQQDFVNWLLAQKGKKNDWKHNITQH (7HO-Tic at 1; Aib at 2; A5c at 11) [(7HO-Tic^1, Aib^2, A5c^11, His^43)hGIP(1-43)-OH]",4.82 nM
7,"YXEGTFISDYXIAXDKIHQQDFVNWLLAQKGKKNDWKHNITQH (3Cl-Tyr at 1; Aib at 2; A5c at 11; Nle at 14) [(3Cl-Tyr^1, Aib^2, A5c^11, Nle^14, His^43)hGIP(1-43)-OH]",0.76 nM
8,"YXEGTFISDYXIAMDKIHQQDFVNWLLAQKGKKNDWKHNITQH (2,6Me-Tyr at 1; Aib at 2; A5c at 11) [(2,6Me-Tyr^1, Aib^2, A5c^11, His^43)hGIP(1-43)-OH]",35 nM
9,"YAEGTFISDYXIAXDKIHQQDFVNWLLAQKGKKNDWKHNITQC (3Cl-Tyr at 1; D-Ala at 2; A5c at 11 and 14; Cys(succinimide) at 43, X stands for a non-natural residue) [[3Cl-Tyr^1, D-Ala^2, A5c^11, 14, Cys^43(succinimide)]hGIP(1-43)-OH]",1.41 nM
10,"YAEGTFISDYXIAXDKIHQQDFVNWLLAQKGKKNDWKHNITQC (3Cl-Tyr at 1; D-Ala at 2; A5c at 11; Nle at 14; Cys(succinimide) at 43, X stands for a non-natural residue) [[3Cl-Tyr^1, D-Ala^2, A5c^11, Nle^14, Cys^43(succinimide)]hGIP(1-43)-OH]",9.13 nM
11,"YAEGTFISDYXIAXDKIHQQDFVNWLLAQKGKKNDWKHNITQK (3Cl-Tyr at 1; D-Ala at 2; A5c at 11 and 14; Lys(N-C(O)-(CH2)10-CH3) at 43, X stands for a non-natural residue) [[3Cl-Tyr^1, D-Ala^2, A5c^11, 14, Lys^43(N-C(O)-(CH2)10-CH3)]hGIP(1-43)-OH]",9.06 nM
12,"YXEGTFISDYXIAXDKIHQQDFVNWLLAQKGKKNDWKHNITQC (3Cl-Tyr at 1; Aib at 2; A5c at 11; Nle at 14; Cys(succinimide-N-(CH2)2-C(O)NH-(CH2)3-O-CH2-CH(20K PEG)-CH2-20K PEG) at 43; C-terminal amide, Branched PEGylated analogue)",42.4 nM
13,"YAEGTFISDYXIAXDKIHQQDFVNWLLAQKGKKNDWKHNITQK (3Cl-Tyr at 1; D-Ala at 2; A5c at 11; Nle at 14; Lys(N-C(O)-(CH2)10-CH3) at 43, X stands for a non-natural residue) [[3Cl-Tyr^1, D-Ala^2, A5c^11, Nle^14, Lys^43(N-C(O)-(CH2)10-CH3)]hGIP(1-43)-OH]",6.64 nM
14,"YXEGTFISDYXIAXDKIHQQDFVNWLLAQKGKKNDWKHNITQC (3Cl-Tyr at 1; Aib at 2; A5c at 11; Nle at 14) [(3Cl-Tyr^1, Aib^2, A5c^11, Nle^14, Cys^43)hGIP(1-43)-OH]",0.83 nM
15,"XXEGTFISDYSIAMDKIHQQDFVNWLLAQK (4Hppa at 1; Aib at 2; C-terminal amide) [(4Hppa^1, Aib^2)hGIP(1-30)-NH2]",1.58 nM
16,"[Desaminotyrosyl]A[Pip]GTF[Ac6c]SDYSIAMDKIHQQDFVNWLLAQKGKKNDWKHNITQ-OH [(4Hppa^1, hPro^3, A6c^7)hGIP(1-42)-OH]",707 nM
17,"XXEGTFXSDYSIAMDKIHQQDFVNWLLAQK (4Hppa at 1; Aib at 2; A5c at 7; C-terminal amide) [(4Hppa^1, Aib^2, A5c^7)hGIP(1-30)-NH2]",5 nM
18,"XXEGTFISDYXIAMDKIHQQDFVNWLLAQK (4Hppa at 1; Aib at 2 and 11; C-terminal amide) [(4Hppa^1, Aib^2, 11)hGIP(1-30)-NH2]",15.4 nM
19,"[Desaminotyrosyl]A[Hyp]GTF[Ac6c]SDYSIAMDKIHQQDFVNWLLAQKGKKNDWKHNITQ-OH [(4Hppa^1, 4Hyp^3, A6c^7)hGIP(1-42)-OH]",251 nM
